Legend:
Details in all cases: both partners purified
[1] = biological target: T1, myosin S2Δ, the first 126 amino acids of myosin sub-fragment 2 (rat heart) (rat, Alexa 647 (labelled with Alexa 647–NHS, efficiency of ~80%)); assay: MST; isolated m-motif titrated against 100 nmol/liter Alexa 647–myosin S2Δ; MST buffer adjusted to pH 6.2, enhanced gradient standard capillaries; 50 mmol/liter KCl; 30 °C
T1 construct: cardiac myosin heavy chain cloned from a rat heart cDNA library; the first 126 amino acids of myosin S2; also called Alexa 647–myosin S2Δ; source: E. coli BL21(DE3)-RIPL, purified (HisTrapFF, TEV, Mono Q); not shown: His6, N-terminal, cleaved

[2] = biological target: T1, myosin S2Δ, the first 126 amino acids …; assay: MST; as a2 (pH 7, 50 mmol/liter KCl); 30 °C
[3] = biological target: isolated native thin filaments (UniProt P68032 1-377); assay: co-sedimentation; high-velocity co-sedimentation of C1mC2 constructs with isolated native thin filaments; performed as described in ref. 15

B1: isolated m-motif of rat cardiac myosin-binding protein-C (domain or fragment)
chain: VHEAIGSGDLDLRSAFRRTSLAGTGRRTSDSHEDAGTLDFSSLLKKSSFRRDSKLEAPAEEDVWEILRQAPPSEYERIAFQHGVTDLRGMLKRLKGMKHDE
[1]
  Kd: 41.1 µM

B2: C1–C2, construct containing Ig domains C1 and C2 of rat cardiac myosin-binding protein-C connected by a flexible linker, with the m-motif deleted (domain or fragment)
chain: PIGLFLMRPQDGEVTVGGSIVFSARVAGASLLKPPVVKWFKGKWVDLSSKVGQHLQLHDSYDRASKVYLFELHITDAQATSAGGYRCEVSTKDKFDSCNFNLTKKSTAFQKKLEPAYQVNKGHKIRLTVELADPDAEVKWLKNGQEIQMSGRYIFESIGAKRTLTISQCSLADDAAYQCVVGGEKCSTELFVKEP
[2]
  Kd: 477 µM

B3: C1mC2 of rat cardiac myosin-binding protein-C with three phosphorylatable serines mutated to aspartate (domain or fragment)
chain: PIGLFLMRPQDGEVTVGGSIVFSARVAGASLLKPPVVKWFKGKWVDLSSKVGQHLQLHDSYDRASKVYLFELHITDAQATSAGGYRCEVSTKDKFDSCNFNLTVHEAIGSGDLDLRSAFRRTDLAGTGRRTDDSHEDAGTLDFSSLLKKSDFRRDSKLEAPAEEDVWEILRQAPPSEYERIAFQHGVTDLRGMLKRLKGMKHDEKKSTAFQKKLEPAYQVNKGHKIRLTVELADPDAEVKWLKNGQEIQMSGRYIFESIGAKRTLTISQCSLADDAAYQCVVGGEKCSTELFVKEP
[3]
  Kd: 16 µM
